The text below walks through data of IntAct's records for PubMed 30559189.

B1: Lipoprotein lipase (Homo sapiens), P06858 (parent)
chain: MESKALLVLTLAVWLQSLTASRGGVAAADQRRDFIDIESKFALRTPEDTAEDTCHLIPGVAESVATCHFNHSSKTFMVIHGWTVTGMYESWVPKLVAALYKREPDSNVIVVDWLSRAQEHYPVSAGYTKLVGQDVARFINWMEEEFNYPLDNVHLLGYSLGAHAAGIAGSLTNKKVNRITGLDPAGPNFEYAEAPSRLSPDDADFVDVLHTFTRGSPGRSIGIQKPVGHVDIYPNGGTFQPGCNIGEAIRVIAERGLGDVDQLVKCSHERSIHLFIDSLLNEENPSKAYRCSSKEAFEKGLCLSCRKNRCNNLGYEINKVRAKRSSKMYLKTRSQMPYKVFHYQVKIHFSGTESETHTNQAFEISLYGTVAESENIPFTLPEVSTNKTYSFLIYTEVDIGELLMLKLKWKSDSYFSWSDWWSSPGFAIQKIRVKAGETQKKVIFCSREKVSHLQKGKAPAVFVKCHDKSLNKKSG
partner: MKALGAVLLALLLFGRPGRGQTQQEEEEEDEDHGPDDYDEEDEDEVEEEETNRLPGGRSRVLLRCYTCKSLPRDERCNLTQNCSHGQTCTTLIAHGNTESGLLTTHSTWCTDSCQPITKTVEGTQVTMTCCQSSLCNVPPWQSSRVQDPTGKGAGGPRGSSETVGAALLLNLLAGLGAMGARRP
B2: Glycosylphosphatidylinositol-anchored high density lipoprotein-binding protein 1 (Homo sapiens), Q8IV16 (parent)
chain: B1 partner
partner: B1 chain

One assay covers variants of B1. Conditions: with hdbp1_human GPIHBP1, Q8IV16.
As for MESKALLVLTLAVWLQSLTASRGGVAAADQRRDFIDIESKFALRTPEDTAEDTCHLIPGVAESVATCHFNHSSKTFMVIHGWTVTGMYESWVPKLVAALYKREPDSNVIVVDWLSRAQEHYPVSAGYTKLVGQDVARFINWMEEEFNYPLDNVHLLGYSLGAHAAGIAGSLTNKKVNRITGLDPAGPNFEYAEAPSRLSPDDADFVDVLHTFTRGSPGRSIGIQKPVGHVDIYPNGGTFQPGCNIGEAIRVIAERGLGDVDQLVKCSHERSIHLFIDSLLNEENPSKAYRCSSKEAFEKGLCLSCRKNRCNNLGYEINKVRAKRSSKMYLKTRSQMPYKVFHYQVKIHFSGTESETHTNQAFEISLYGTVAESENIPFTLPEVSTNKTYSFLIYTEVDIGELLMLKLKWKSDSYFSWSDWWSSPGFAIQKIRVKAGETQKKVIFSSREKVSHLQKGKAPAVFVKCHDKSLNKKSG [C445S], the “effect of a mutation on the interaction” value is “disrupting interaction strength”.

In the case of MESKALLVLTLAVWLQSLTASRGGVAAADQRRDFIDIESKFALRTPEDTAEDTCHLIPGVAESVATCHFNHSSKTFMVIHGWTVTGMYESWVPKLVAALYKREPDSNVIVVDWLSRAQEHYPVSAGYTKLVGQDVARFINWMEEEFNYPLDNVHLLGYSLGAHAAGIAGSLTNKKVNRITGLDPAGPNFEYAEAPSRLSPDDADFVDVLHTFTRGSPGRSIGIQKPVGHVDIYPNGGTFQPGCNIGEAIRVIAERGLGDVDQLVKCSHERSIHLFIDSLLNEENPSKAYRCSSKEAFEKGLCLSCRKNRCNNLGYEINKVRAKRSSKMYLKTRSQMPYKVFHYQVKIHFSGTESETHTNQAFEISLYGTVAESENIPFTLPEVSTNKTYSFLIYTEVDIGELLRLKLKWKSDSYFSWSDWWSSPGFAIQKIRVKAGETQKKVIFCSREKVSHLQKGKAPAVFVKCHDKSLNKKSG [M404R], the “effect of a mutation on the interaction” value is “disrupting interaction strength”.

In a further assay the parent is B1. The note with it: with hdbp1_human GPIHBP1, Q8IV16. The source holds these as a separate data set.
Turning to MESKALLVLTLAVWLQSLTASRGGVAAADQRRDFIDIESKFALRTPEDTAEDTCHLIPGVAESVATCHFNHSSKTFMVIHGWTVTGMYESWVPKLVAALYKREPDSNVIVVDWLSRAQEHYPVSAGYTKLVGQDVARFINWMEEEFNYPLDNVHLLGYSLGAHAAGIAGSLTNKKVNRITGLDPAGPNFEYAEAPSRLSPDDADFVDVLHTFTRGSPGRSIGIQKPVGHVDIYPNGGTFQPGCNIGEAIRVIAERGLGDVDQLVKCSHERSIHLFIDSLLNEENPSKAYRCSSKEAFEKGLCLSCRKNRCNNLGYEINKVRAKRSSKMYLKTRSQMPYKVFHYQVKIHFSGTESETHTNQAFEISLYGTVAESENIPFTLPEVSTNKTYSFLIYTEVDIGELLMLKLKWKSDSYFSWSDWWSSPGFAIQKIRVKAGETQKKVIFYSREKVSHLQKGKAPAVFVKCHDKSLNKKSG [C445Y], the “effect of a mutation on the interaction” value is given as “disrupting interaction strength”.

In a further assay the parent is B2. The note with it: with lipl_human LPL, P06858.
On to MKALGAVLLALLLFGRPGRGQTQQEEEEEDEDHGPDDYDEEDEDEVEEEETNRLPGGRSRVLLRCYTCKSLPRDERCNLTQNCSHGQTCTTLIAHGNTESGLLTTHSTSCTDSCQPITKTVEGTQVTMTCCQSSLCNVPPWQSSRVQDPTGKGAGGPRGSSETVGAALLLNLLAGLGAMGARRP [W109S], for which the “effect of a mutation on the interaction” value is “disrupting interaction strength”.
